The text below walks through data of publication PMC8318589, “Structure and analysis of nanobody binding to the human ASIC1a ion channel” (eLife, 2021).

One assay has as its target T1, chicken ASIC1-Flag (Gallus gallus, ASIC1, UniProt Q1XA76).
T1 construct: chicken acid-sensing ion channel 1 (cASIC1); also called cASIC1; source: transfected cells, on cells
The assay can be described thus: immunostaining of cells or tissue; transfected cells on coverslips incubated with Nb (1 nM, 1 hr, on ice) in the medium, washed, fixed, permeabilized; Nb detected by anti-HA, channel by anti-Flag; confocal microscopy. Conditions: one partner purified.

A further assay deals with T2, mouse ASIC2a-Flag (Mus musculus, ASIC2a (512 aa isoform), UniProt Q925H0-1).
T2 construct: mouse acid-sensing ion channel 2a (ASIC2a); also called mASIC2a; source: transfected cells, on cells
T2 sequence (Q925H0 whole entry, canonical isoform): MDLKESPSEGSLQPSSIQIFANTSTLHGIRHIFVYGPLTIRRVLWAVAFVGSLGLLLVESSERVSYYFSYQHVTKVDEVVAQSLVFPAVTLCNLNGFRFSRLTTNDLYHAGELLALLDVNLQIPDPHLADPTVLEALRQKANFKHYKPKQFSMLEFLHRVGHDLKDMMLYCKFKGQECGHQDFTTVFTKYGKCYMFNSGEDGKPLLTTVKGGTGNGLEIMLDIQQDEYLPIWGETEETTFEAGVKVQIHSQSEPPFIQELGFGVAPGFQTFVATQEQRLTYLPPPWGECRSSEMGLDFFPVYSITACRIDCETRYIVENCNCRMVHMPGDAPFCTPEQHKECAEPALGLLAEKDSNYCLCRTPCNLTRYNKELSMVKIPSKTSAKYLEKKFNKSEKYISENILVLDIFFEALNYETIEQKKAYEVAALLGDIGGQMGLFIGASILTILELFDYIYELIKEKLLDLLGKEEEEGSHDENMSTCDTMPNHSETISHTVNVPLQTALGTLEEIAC
Described as above. As to conditions: one partner purified.

A further assay addresses T3, mouse ASIC3-Flag (Mus musculus, ASIC3, UniProt Q6X1Y6).
T3 construct: mouse acid-sensing ion channel 3 (ASIC3); also called mASIC3; source: transfected cells, on cells
Described as above. As to conditions: one partner purified.

A further assay concerns the target T4, mouse ASIC1a-Flag (Mus musculus, ASIC1a, UniProt Q6NXK8-1).
T4 construct: mouse acid-sensing ion channel 1a (ASIC1a); also called mASIC1a; mASIC1; source: transfected cells, on cells
Described as above. As to conditions: one partner purified.

Assay [1] has as its target T5, hASIC1a comprising amino acids 12–478 with a Strep Tag II in the N-terminus (human, UniProt P78348-2).
T5 construct: human acid-sensing ion channel 1a (ASIC1a), residues 12-478 (50 a.a. carboxyl terminal deletion); Trimer in the cryo-EM structure; also called human ASIC1a; recombinant hASIC1a protein; source: HEK293F (FreeStyle 293 F) cells, transfected (pcDNA3.1); crude membranes, solubilised in DDM, purified (Strep Tactin XT, SEC); not shown: Strep Tag II, N-terminal, kept
Kind of assay: SPR + immunostaining of cells or tissue; equilibrium constant worked out from the smallest kon of the SPR (purified, immobilised hASIC1a) and the upper limit of koff from the live-cell chase (hASIC1a on HEK293 cells). Conditions: one partner purified.

Assay [2] deals with T5, hASIC1a comprising amino acids 12–478 …. The assay can be described thus: SPR; Biacore S200; hASIC1a amine-coupled to a CM5 chip (diluted in sodium acetate pH 5.0, 0.05% DDM); Nb.C1 injected at 0.41-100 nM, 30 µL/min; association 100 or 300 s, dissociation 300 or 3600 s; two protein preparations; global fits to association time courses. Conditions: both partners purified.
Another assay has as its target T6, human ASIC1a-Flag (Homo sapiens, ASIC1a (528 aa isoform), UniProt P78348-2).
T6 construct: human acid-sensing ion channel 1a (ASIC1a); this molecule is used for them; also called hASIC1a; hASIC1a-Flag; source: HEK293T / HEK-293 cells, transfected (pcDNA3.1), on cells
The assay can be described thus: immunostaining of cells or tissue; chase: live HEK293 cells transfected with hASIC1a-Flag incubated with 10 nM Nb.C1-HA for 30 min at 18°C, washed, followed for 0-4 hr with a wash each hour, then fixed; Nb.C1 fluorescence normalised to time 0; koff estimated from the lack of decay. Conditions: one partner purified.

The target of assay [3] is T5, hASIC1a comprising amino acids 12–478 …. Kind of assay: SEC; purified Nb.C1 added to crude membranes of 293 F cells expressing Strep-tagged hASIC1a (4°C, 3 hr) before solubilisation with 1% DDM; Strep Tactin XT affinity purification, then Superdex 200 Increase; peak run on Coomassie-stained SDS-PAGE. As to conditions: one partner purified.

T3 sequence (Q6X1Y6 whole entry): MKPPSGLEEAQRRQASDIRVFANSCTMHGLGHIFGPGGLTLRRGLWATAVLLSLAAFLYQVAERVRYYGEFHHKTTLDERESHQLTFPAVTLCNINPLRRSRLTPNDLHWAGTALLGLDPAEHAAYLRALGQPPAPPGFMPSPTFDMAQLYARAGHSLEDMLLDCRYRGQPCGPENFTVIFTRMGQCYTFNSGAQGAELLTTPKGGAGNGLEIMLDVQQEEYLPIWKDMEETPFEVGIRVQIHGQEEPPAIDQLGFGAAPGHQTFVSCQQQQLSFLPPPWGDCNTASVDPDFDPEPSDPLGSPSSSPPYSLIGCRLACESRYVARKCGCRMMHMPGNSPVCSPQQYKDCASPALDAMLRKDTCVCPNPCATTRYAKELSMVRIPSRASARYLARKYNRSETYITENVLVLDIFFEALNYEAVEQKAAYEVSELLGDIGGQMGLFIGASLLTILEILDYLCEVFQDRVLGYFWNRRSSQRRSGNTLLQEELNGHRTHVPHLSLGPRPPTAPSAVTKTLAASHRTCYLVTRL

B1: Nb.C1 (VHH)
VHH: QVQLVESGGGLVQPRGSLRLSCAASGFTFSRAAMSWYRQAPGKEREMVSTIGSFGVSTNYSDSVKGRFTISRDNAKNTVYLHMNSLKPEDTAVYYCNARYRSSYPWGQGTQVTVSS
notes: alpaca VHH selected by phage display against hASIC1a; Expressed from the phagemid pADL-22c; also called Nb.1C; Nb.C1-HA; source: E. coli WK6, periplasm, purified (Ni-NTA); not shown: HA, C-terminal, kept
Take B1: the binding result with chicken ASIC1-Flag, with mouse ASIC2a-Flag, with mouse ASIC3-Flag and in the assay with mouse ASIC1a-Flag was “no binding (tested: 1 nM)” each time. For the same molecule, in assay [1], the Kd was at most 0.2 nM. For the same molecule, the association rate constant (kon) in assay [2] is 68000 to 220000 M⁻¹ s⁻¹. Also, in the assay with human ASIC1a-Flag, the koff was at most 1.4e-05 s⁻¹. Moreover, the “stoichiometry N” value in assay [3] was found to be 1.
